Consider 20 sequences from the DeepSol protein solubility set.

This data set in a line: soluble on expression in E. coli; label from the status in PepcDB or PDB records.
As to “MGSDKIHHHHHHMSLYLDDTLSRIVELDLKDTRIVPFLAGEPGIGKTSFIYGIGERAGYKVFSISVNTLADKGDLTGARTLQDPADGKWKQMFFPHATFVEANDYALANPNETVVILLDEINRTDSDVTSASMTISTERRVGTTDLAPNVRLAVTGNLTGNVTHLDSASLTRFSLYEVKPSAETFMNIMGGRLNKYIRTVLTKYPEYIFMKPTTATALITTGDDDDDHTTNAKQMMDFNAVLGSDQDMVQFTAPRTIEGLSVWLNNADDDFLRLLLQEKVDGLARSMSLLQATLESHTGDTAFTAEVLSEMTNDLLSSASQAPSGPIKPFVYDRLAAAPSNTVLEQEVHTLSLNDRADVLLFALHDTVNNAAPSIIAHLASEGVLDELPKDRISKIVSLGPVPTANYHALTRQDTTLTRNLGPAVLGFLES”, the “soluble on expression in E. coli” value was “not soluble”.
Under “MEKERETLQAWKERVGQELDRVMAFWLEHSHDREHGGFFTCLGRDGRVYDDLKYVWLQGRQVWMYCRLYRKLERFHRPELLDAAKAGGEFLLRHARVAPPEKKCAFVLTRDGRPVKVQRSIFSECFYTMAMNELWRVTAEARYQSEAVDMMDQIVHWVREDPSGLGRPQLPGAVASESMAVPMMLLCLVEQLGEEDEELAGRYAQLGHWCARRILQHVQRDGQAVLENVSEDGEELSGCLGRHQNPGHALEAGWFLLRHSSRSGDAKLRAHVIDTFLLLPFRSGWDADHGGLFYFQDADGLCPTQLEWAMKLWWPHSEAMIAFLMGYSESGDPALLRLFYQVAEYTFRQFRDPEYGEWFGYLNREGKVALTIKGGPFKGCFHVPRCLAMCEEMLSALLSRLA” stands “soluble”; under “MRFVMPGDRIGSAEEYVKGEGVYEEGGELFAAVAGKLIIKDRVAKVESISPIPEIVKGDVVLGRVVDLRNSIALIEVSSKKGENRGPSNRGIGILHVSNVDEGYVKEISEAVGYLDILKARVIGDNLRLSTKEEEMGVLRALCSNCKTEMVREGDILKCPECGRVEKRKISTDYGKGEW”, “soluble”.
The entry for “MYFPIVALIGRYQDTGLDAPLTALAQMLTQAGRRVLVEAETARNAGVSGYPVADWDEIGRTATLAVVMGGDGTVLGAARHLAPYGVPLIGINHGRLGFITDIPLQDAHDALGRVLEGNYQAEDRMLLQGGVWRGEQQMYSASAVNDVVLNRAGRGGMIEVRVELDGAFMYTQRADGLIIATPTGSTAYSLSANGPILHPGMNAMVLVPVAPQTLSNRPIVIPDSGVLNMTLTAMGRVEIGASVHFDMQTWSDLQPGDRITVQRAPHTIRFVHPEGYSFFSTLRRKLHWNLMPQATDNLELEHHHHHH” is “soluble”; for “MPTLSSNLKHLRLLLGRSQGEFAEQLGIAQSTLSSVERENRPPSTKLINTARFQTGVSAEYFEASIHFYAAPDLLFRSAREGRANADKIAAAFSIAEHYLRERYPDVTSDLPTIPIADLEGELSLRMLEEFASQTRDHFGIDQDSMIPNLTTVLNNHGILVTSLPDYVVEGTNFDGVSTPTDSTLRIIALNQQRSGDRYRFSLAHELAHLILHANTLRSDKSQMEKEANIFAASFLMPRALLTPVITPELTLKDYAELKAQWGYSIQAIVRRAHELELIDYKRYRSLRMQIAGRGWNINEPVDVLLENVYIDPIDLLSNNIKKHQSTNEGLATVTSLHKQ” it is “not soluble”; for “AIAITGETEPACVEDASQLAEQRNGAPVMEAGCAAVPVEANATKRGYWRQRTLHSWFIGRKPQRTCIAVDIDEVLAFFVPELCAFHNKRYGTRLQATDFHSYRFAEVWGGTDTDAIRKVHEFFRTPAFQELQPIPGAKQVLQSRLARFRFVVVTSRQLVIEQETRAWLDKHFSGIFEAIYLGNQWALHPNGEHGTGVGSAAQEPQRLFANRRRKSQVCKACGAAVLIDDLPHNLLDCSENGVFGVLFDFQGQYGWSKSPAFESKDIAVVHSWEAVGELLDRL” it is “soluble”.
The entry for “GPGSMVSRDSRYIHRRWYLEDATLTIQQPKLELLVDFDDPSSFAFPANLPPTLGMRRAAAVATATGGLSGVMGLGSEGNLLADWREIGIPPFTEE” is “not soluble”; for “MGSDKIHHHHHHMSFTVATIAREPWPVLNRFLTWHLDQGAERIILYLDDPDDPSLPRLRGEPRIDARPCTPAFWRQIGLKQDARFTRRQRGVLSQAYHELEDGWLLVLDADEMMWMSGRTIPEALATLPDEAQSLRVRSAEQVRLSDGSEAFRTPIERAAVDRVYGDLSGLLRARFGFTYHPEGKSFHRAGQRLNMKLHWAQDANGDRTPGPVWGRAERAYLMHYAAPDYARWRAKVNWRAGASGFVLPVKEQITEIAESNDPEAGYQDLYRTLHGLTDAQALALEAEGGLLRDGPKVLDLGG” it is “not soluble”; for “MGSDKIHHHHHHMKIKVKLPDGKEKEYDRGITPAEIAKELGIKKAIGAVVNGELWDLKRPIENDCELRLVTLEDPEAPEFYRHTMAHILAQAVMRLYGKENVKLGIGPTIENGFYYDFDIKNGRLTEEDLPKIEQEMKKIIKENLPIERKEISKEEARELFRDQPYKLELIEEIEGNRVTIYRQGEFVDLCRGPHLPSTGIVKHFKLLSVSGAYWRGSEKNPMLTRVYGTAFAKKEDLDNYLKFLEEAQRRDHRKLGPQLELFMLNTEYAPGMPFFLPKGVVVLNELMKFSRELHRERGYQEIFTPLIMNEQLWKISGHWDHYAENMYFIEKDEERYAVKPMNCPGHILVYKSRTVSYRDLPLRFFEFGRVHRYERSGVLHGLMRVRSFTQDDAHIFCTPDQIEEEILGVLDLINTIYSQFGFTYRVELSTMPEDHMGDEAIWEKATTALKNALERAGLSYKVNEGEGAFYGPKIDFHIRDSIGREWQCATIQLDFMMPEKFNVTYIGPDNKEHRAVMIHRAIYGSLERFFGILIEHFAGAFPTWLAPIQVAVIPISEKHNDGAEKVARRISQEGFRVFFDNRRETLGYRIRQAQTQKIPYMIIIGDKELESGKISVRTRTGKEIKDVDPEHFVETLRNEVLSRKLELSMEG” it is “not soluble”.
With “MRVAVDAMGGDNAPAVEVEGAVVAAREFGIPITLVGDTEKLRLELAKHNVQGLDIAIHHASEVVGMHDAASDAVRRKKDSSIRVAFDLVKSGEAEAVVSAGNSGATMAAGMFVLKRLKGIDRPAIAQIFPTLRGKTLVLDVGGNVDCKPIHLVQFAIMGEVYARHVIGVEQPRIGLLSNGEEDSKGNELTRETNAILKNISFDYEGYVEGRDIFNGMVDVVVCDGFVGNVVLKLSEGLAETVGKMLREEIASSLLSKLGYLFVRKAFKNFKKKVDYAEYGGAPLIGINGVAMICHGGSNVKAIKNAIHFAHEYVRKGVNQRLAEKMETEFTAYMQQFDAVKEAVAG”, the “soluble on expression in E. coli” value was “not soluble”.
For “MKPFCTVMANGEDITRTLMDYVLSIEITDEAEDKSDRITIELDDRARECDNGFLDIPLIGTIISVTLGYEGGKNRDMGAYLIDEISVSSPPQSLSVTGRAASMNTSYRTPKSQSYHQQTLGNIIQEIAERNGYTPKVDPALAKIVVRHIDQTSESDMAFATRLAEDYDAVAKPVDGKLVLAKRGEGKAITGETLPVVVIHEKLCSSWDFKYSARDEAGAANGLATEAGDDQKAAADAREPEEVEEGEDVIHMDESDAPNLPKAETEAKTPENQEQDEEKKGGVLASYHDIRTGEKKEVKVGKAPFHELKYTYHNQSEAVAAIAAYRNKSSRGKSSFSCDIGGDPFVQAEAKLVQEPPFRPYIPAEWRIKSVKHKLDKTGGYTTKIDCELFDETQEDAAGNVANTTPDKDDTLDPNAPPNACDEGEGVIHMDEEDR”, the “soluble on expression in E. coli” value is “not soluble”.
As for “MNMDVNAVKNSTRGKHWFNLLTQGFNLIASGIDSLLIAEGQLGENKISVFCVVPDSHNHFPRARQGEVGLLEGWSLAQAIDQIIESDQNLTHKRGILCIVDVPSQAYGRREELLGIHQALAAAADSYVRARLAGHPVVSLLVGKSMSGAFLAHGYQANRILALKDQGVMVHAMGKESAARVTLRTVDELENLAANIPPMAYDIESYNSLGLLSGLLNVSHADHPTTSDIDYIQQTLSQTFQEIRNQGTSDLKHRLSAKNREASVHVRELLREQWS”, the “soluble on expression in E. coli” value is “not soluble”.
The entry for “KGTLYLVATPIGNLEDVTFRAIRTLKEADQIAAEDTRQTKKLLNHFDIATKLVSYHEHNKETMGKRLIDDLIEGRTIALVSDAGMPAISDPGYELVVSAIKEGIAVIPIPGA” is “not soluble”.
Under “MTRIAIALAQDFADWEPALLAAAARSYLGVEIVHATPDGMPVTSMGGLKVTPDTSYDALDPVDIDALVIPGGLSWEKGTAADLGGLVKRFRDRDRLVAGICAAASALGGTGVLNDVAHTGNALASHKAYPAYRGEAHYRDQPRAVSDGGVVTAAGSAPVSFAVEILKSLGLFGPEAEAELQIFAAEHR” stands “soluble”; under “MGSDKIHHHHHHMFVMLAMANVTTSAPRAVAPAYDPRLVRAAVAMNENDLPTAEPLLRALLKDDPFDVRAIRLFAELAGRIGRYQDAENLLRRAIELAPQFTAARANLALVLYRTNRAPEALEELAKVTADDPENVGHANLQAAAYGRIGEFDEALALYEQVLKQAAAQPRVWMSYGHMLKTVGRQADGVAAYRRAIELLPTLGEAWWSLANLKTVRFDDADIAAMEAALRVPDLAPEDQWHLDFALGKAFEDRGEAERSFRHYAAGNALRKKRMPYQAEEITAQVDRAVAAFTPATVAGLSGKGCEAGDPIFVLGMPRAGSTLVEQILASHSMVEGTSELADIGYLARTVEGYPAGLSSLQGNDLRALGEQYLARTRIQRHTDRPLFVDKMPNNWIHVPFIRAILPNAKIVDARRHPLSCCFSNFKQHFARGQGFSYSLEDMGRYYRDYVRAMAHFDKVIPGAVHRVIYERMVEDTEAEVRALLAYCGLAFEDNCLAFHRTERAVRTASSEQVRQPIFRDGTDAWKAFEPWLGELKVALGAVQDFYPEAPPFD”, “not soluble”.
The entry for “MTDIQDVISPKLAVAIANPIFPAVDSLLRSGRHISTEHLDNHAFLMDFQNELDGFYRRYNVELIRAPEGFFYLRPKATTLIARSVLSELEMLVGKVLCYLYLSPERLAQQGIFSTQEVYDELLNLADEGKLLKAVNQRSSGSDLDKQKLAEKVRAAIGRLRRLGMIQTVGEQNSGKFTISESVFRFGAEVRSGDDPLESQARLIRDGEAATPDSLALEKQAQLMENDTKSADEIDEEFDGEQELEHHHHHH” is “soluble”.
Turning to “MSLKIGIVKHLNARPLTWGFEKNKKHEIVPENPAILKDYLLNGTIDLGLISSIECIRNDHVLNTYYGTGVCAREKVRSILFFKNKRENFPPKQILTDNGSKTSVALVRVLIYEESGLIPYVEPTDSKLIQEKISNGIGSHMLFGDNALLAKWNPEFYEVKDLAQWWNELTGLGFIFALWASKKSLKLDDLIFIQSLEYGVSHIEEIISHESRLSSTLVREYLTKELHYKITEEDQKGFLLFREKCSQLNLLEGHHHHHH”, the “soluble on expression in E. coli” value was “soluble”.
Under “MITQVNQLDELQLKDLKTLRAECKKNDGSIPNLYIHILKQHRSLPTSFLYYQNGALIGFLSIYFFYDDAVEVAVLVSPQYRRQGIAKQLIKEALPLIKSQNYFNLIFSCPSRLNDNWLTSKGFTYLHSEYFMERDDLNPILDYIRPLSFRMATLEDIPILCGLDEVCFPDKNQDSVHRFQQILNEREYEIVIAMLNNHPIGKSHIRWQTKRATLSDIAILPKEQGKGFGSALIAHCINMILSEGKSRVDLDVETHNKKALNLYIQLGFHIQNACDYWSINVNQLAK” stands “not soluble”; under “MFSKTVVVLLMVVPAISLAQPASPLVLKKSHGAFCHLCEDLIKDGKEAGDVALDVWLDEEIGSRCKDFGVLASECFKELKVAEHDIWEAIDQEIPEDKTCKEAKLC”, “not soluble”; under “FSVEELSEILESHSIRLELQPILELETGRVGAAEGLLRINLDGTDVPTGQFVQSVEQAGLAPKLDIAVMREGINHIERLRAVCPTFSLALNLSGYSLSSAKIREELRAEFRARDLPRGSIRFEITETAPIEDIDAAKEFVQMLKDFGFHIVIDDFGAGHEPYQYLKKFDFSVLKIAGEFIEGMVTNRVDRSIVESIAQLAKDEEMETVAEFVSSKEILEAVREIGVTYAQGFHIGKSKPIDEFIATYLETNQTATWG”, “not soluble”.
